Values quoted from earlier work, collected in article PMC6155283.
pKd: −log10 of the molar value. Several values for one entry are separate records, joined by “and”; a condition that tells them apart may be missing. Equal entries are not always repeated.

Biological target: GRα (Homo sapiens) (UniProt P04150)

pKd: 5.13 and 5.52
Substance: GRα (from UniProt P04150)
